Measured values published in patent US20130023033A1, “PHARMACOLOGICALLY INDUCED TRANSGENE ABLATION SYSTEM” (The Trustees of the University of Pennsylvania, priority 2010, published 2013).
Entries after “also recorded” stand apart in the source; their conditions may differ. Values belong to the molecule of their own block, whether it stands above or below them.

What was measured:
[1] = molecular target: ZFHD-FKBP fusion with 3 copies of FKBP (3xFKBP) (UniProt P62942); assay: cell-based or functional assay
[2] = system: GFP-Luciferase driven by a promoter induced by the dimerized TF; assay: In vivo model for a dimerizer-inducible system (Xenogen imaging of luciferase after rapamycin); design: species or system mouse; conditions: rapamycin 2 mg/kg IP
Excerpt: Four groups of three mice received IV injection of AAV vectors encoding bicistronic reporter genes (GFP-Luciferase) at doses of 3×10^10, 1×10^11 and 3×10^11 particles of virus, respectively: Group 1 (G 1, G2, and G3) received AAV vectors expressing GFP Luciferase under the control of ubiquitous constitutive CMV promoter (see FIG. 16A for a diagram of the DNA construct). Group 2 (G4, G5, and G6) received co-injection of the following 2 AAV vectors: (1) AAV vector expressing a dimerizable transcription factor domain unit (FRB fused with p65 activation domain and DNA binding domain ZFHD fused with 3 copies of FKBP) driven by the CMV promoter (the DNA construct shown in FIG. 9B; and (2) AAV vector expressing GFP-Luciferase driven by a promoter induced by the dimerized TF (see FIG. 19C for a diagram of the DNA constructs). Group 3 (G7, G8, and G9) received AAV vector expressing GFP-Luciferase under the control of a liver constitutive promoter, TBG (see FIG. 16C for a diagram of the DNA construct). Group 4 (G10, G11, G12) received co-injection of the following 2 AAV vectors: (1) AAV vector expressing a dimerizable transcription factor domain unit (FRB fused with p65 activation domain and DNA binding domain ZFHD fused with 3 copies of FKBP) driven by the TBG promoter; and (2) AAV vector expressing GFP-Luciferase driven by a promoter induced by the dimerized TF (see FIG. 16D for a diagram of the DNA constructs).
About 2 weeks post virus administration, the mice were given IP injection of the dimerizer, rapamycin, at the dose of 2 mg/kg. Starting the next day the luciferase expression was monitored by Xenogen imaging analysis. Approximately 24 hours post rapamycin injection, the mice were IP injected with luciferin, the substrate for luciferase, then anesthetized for imaging.

[3] = system: pCMV.Luciferase reporter gene in HEK293 cells; assay: Ablation of luciferase reporter by FokI ablators cotransfected with pCMV.Luciferase; type: cell-based, human; conditions: for expression of Luc reporter gene with increasing concentrations of ablator expression plasmid: 50 ng pCMV.Luciferase cotransfected with 6.25, 12.5, 25, 50 and 100 ng expression plasmid
Description: Open reading frames encoding for various endonucleases were codon optimized and de novo synthesized by GeneArt. Ablator expression and target plasmids were produced using standard molecular biological cloning techniques. Transfections were performed in HEK293 cells using Lipofectamine™ 2000 transfection reagent (Life Technologies). All transfections were performed using optimal transfection conditions as defined in transfection reagent protocol. Briefly, 200-250 ng plasmid DNA (excluding transfection control plasmid) was complexed with lipofectamine and added to cells in 96 well plates. DNA quantities were consistent across all conditions by supplementation with an unrelated plasmid containing the same promoter as test plasmids. Transfection complexes were incubated with cells for 4-6 hours as transfection reagent protocol before the addition of FBS supplemented media. Transfected cells were incubated at 37° C. for 24-72 hours. Following incubation, cells were assayed for reporter gene expression using Promega Dual Luciferase detection kit according to the manufacturer's instructions on a BioTek Clarity platereader and renilla luciferase was used to control for transfection efficiency. All samples were performed in quadruplicate and standard errors of the mean were calculated.

UniProt P62942, sequence (P62942 other isoform, or with tags, fused parts or gaps): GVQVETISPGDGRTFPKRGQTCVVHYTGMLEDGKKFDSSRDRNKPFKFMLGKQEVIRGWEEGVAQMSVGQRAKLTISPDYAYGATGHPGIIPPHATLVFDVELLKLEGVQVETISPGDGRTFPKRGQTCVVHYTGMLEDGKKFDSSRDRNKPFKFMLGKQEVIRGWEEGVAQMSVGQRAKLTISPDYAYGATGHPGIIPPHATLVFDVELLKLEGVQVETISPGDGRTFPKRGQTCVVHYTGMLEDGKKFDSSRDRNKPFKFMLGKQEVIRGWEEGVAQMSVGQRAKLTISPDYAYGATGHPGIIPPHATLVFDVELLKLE

luciferase expression in mice (Xenogen imaging) after rapamycin 2 mg/kg IP against pre-induction; Group 2, transcription factor domains driven by the CMV promoter [1]: 2 logs | luciferase expression in mice (Xenogen imaging) after rapamycin 2 mg/kg IP against pre-induction; Group 4, transcription factor domains driven by the TBG promoter [1]: > 100 fold
Molecule: FRB-TA fusion (FRB fragment of FRAP/mTOR, amino acids 2021-2113 with Thr2098Leu, fused to a 190 amino acid portion of human NF-KB p65)

Molecule: CO[C@H]1C[C@@H]2CC[C@@H](C)[C@@](O)(O2)C(=O)C(=O)N2CCCC[C@H]2C(=O)O[C@H]([C@H](C)C[C@@H]2CC[C@@H](O)[C@H](OC)C2)CC(=O)[C@H](C)/C=C(\C)[C@@H](O)[C@@H](OC)C(=O)[C@H](C)C[C@H](C)/C=C/C=C/C=C/1C [rapamycin]
level of luciferase expression compared to level of pre-induction ([2]; Group 2 mice (TF unit driven by CMV promoter + inducible GFP-Luciferase vector), 3×10^11 particles, about 24 h post rapamycin): more than 2 logs | luciferase expression induced compared to pre-inducement ([2]; Group 4 mice (TF unit driven by TBG promoter + inducible GFP-Luciferase vector), 3×10^11 particles, about 24 h post rapamycin): more than 100 fold | peak level of luciferase expression over baseline ([2]; dimerizer-inducible system): more than 2 logs

Molecule: ZFHD-FokI: FokI catalytic domain fused to a zinc finger homeodomain DNA binding domain (SEQ ID NO: 21), from expression plasmid
expression of Luc reporter gene with increasing concentrations of ablator expression plasmid [3]: dose dependent ablation; also recorded: effectively ablated expression of luciferase reporter in a dose dependent manner

B1: NLS-HTH-FokI: HTH-FokI with heterologous NLS added at the N-terminus of the coding sequence (protein)
chain: MPKKKRKVGRPPRLTKAEWEQAGRLLAQGIPRKQVALIYDVALSTLYKKHPAKRAHIENDDRINGTKQLVKSELEEKKSELRHKLKYVPHEYIELIEIARNPTQDRILEMKVMEFFMKVYGYRGEHLGGSRKPDGAIYTVGSPIDYGVIVDTKAYSGGYNLPIGQADEMQRYVEENQTRNKHINPNEWWKVYPSSVTEFKFLFVSGHFKGNYKAQLTRLNHITNCNGAVLSVEELLIGGEMIKAGTLTLEEVRRKFNNGEINF
modifications: SV40 NLS-Gin HTH-linker-FokI, coding sequence only; modified enzyme from SV40, Gin and FokI
activity (ablation of luciferase reporter) after adding heterologous NLS at the N-terminus ([3]; compared with HTH-FokI without NLS, separate experiment (FIG. 27B)): further improved

B2: wild-type FokI: full-length FokI enzyme (SEQ ID NO: 12) expressed from cotransfected plasmid pCMV.FokI (protein)
chain: MFLSMVSKIRTFGWVQNPGKFENLKRVVQVFDRNSKVHNEVKNIKIPTLVKESKIQKELVAIMNQHDLIYTYKELVGTGTSIRSEAPCDAIIQATIADQGNKKGYIDNWSSDGFLRWAHALGFIEYINKSDSFVITDVGLAYSKSADGSAIEKEILIEAISSYPPAIRILTLLEDGQHLTKFDLGKNLGFSGESGFTSLPEGILLDTLANAMPKDKGEIRNNWEGSSDKYARMIGGWLDKLGLVKQGKKEFIIPTLGKPDNKEFISHAFKITGEGLKVLRRAKGSTKFTRVPKRVYWEMLATNLTDKEYVRTRRALILEILIKAGSLKIEQIQDNLKKLGFDEVIETIENDIKGLINTGIFIEIKGRFYQLKDHILQFVIPNRGVGTKQLVKSELEEKKSELRHKLKYVPHEYIELIEIARNPTQDRILEMKVMEFFMKVYGYRGEHLGGSRKPDGAIYTVGSPIDYGVIVDTKAYSGGYNLPIGQADEMQRYVEENQTRNKHINPNEWWKVYPSSVTEFKFLFVSGHFKGNYKAQLTRLNHITNCNGAVLSVEELLIGGEMIKAGTLTLEEVRRKFNNGEINF
expression of the luciferase reporter gene ([3]; 50 ng pCMV.Luciferase, 200 ng pCMV.FokI or transfected FokI protein (FIG. 25A)): effective ablated expression

B3: HTH-FokI: HTH from Gin, linker and FokI catalytic domain (SEQ ID NO: 6), from expression plasmid (protein)
chain: MGRPPRLTKAEWEQAGRLLAQGIPRKQVALIYDVALSTLYKKHPAKRAHIENDDRINGTKQLVKSELEEKKSELRHKLKYVPHEYIELIEIARNPTQDRILEMKVMEFFMKVYGYRGEHLGGSRKPDGAIYTVGSPIDYGVIVDTKAYSGGYNLPIGQADEMQRYVEENQTRNKHINPNEWWKVYPSSVTEFKFLFVSGHFKGNYKAQLTRLNHITNCNGAVLSVEELLIGGEMIKAGTLTLEEVRRKFNNGEINF
expression of Luc reporter gene with increasing concentrations of ablator expression plasmid [3]: effectively ablated expression of luciferase reporter in a dose dependent manner

B4: untethered FokI: FokI catalytic domain alone, 198 amino acids (SEQ ID NO: 14), from expression plasmid (protein)
chain: MKQLVKSELEEKKSELRHKLKYVPHEYIELIEIARNPTQDRILEMKVMEFFMKVYGYRGEHLGGSRKPDGAIYTVGSPIDYGVIVDTKAYSGGYNLPIGQADEMQRYVEENQTRNKHINPNEWWKVYPSSVTEFKFLFVSGHFKGNYKAQLTRLNHITNCNGAVLSVEELLIGGEMIKAGTLTLEEVRRKFNNGEINF
expression of Luc reporter gene with increasing concentrations of ablator expression plasmid [3]: no effect
